Data taken from the supplement of paper PMC10724198.
± gives the standard deviation of the averaged measurements.

System: Saccharomyces cerevisiae
Assay: protein stability index of tFT-peptide fusion (C-terminal peptide) (PSI (0-1 scale)); higher = more stable (slower turnover)
Settings: temperature: 30 C
Method: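 MPS profiling in S. cerevisiae of the yeast C-terminome library: the last 12 aa of each annotated ORF are fused to the C-terminus of a sfGFP-mCherry timer, after a GGGS linker. Cells are FACS-sorted into 8 mCherry/sfGFP bins and deep-sequenced. PSI runs from 0 (unstable) to 1 (stable); wild type and das1Δ backgrounds, two technical replicates each.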

[1] = genetic background: das1 deletion

Row | Sequence | protein stability index [1] | protein stability index (genetic background: wild type)
1 | GCDLDISYAKRL [HRB1 C-terminal 12 aa] | 0.7155 ± 0.0028 | 0.695 ± 0.035
2 | GCGCNCPEMFDA [MTC5 C-terminal 12 aa] | 0.6906 ± 0.0026 | 0.695 ± 0.029
3 | GDEEDPNEEAAF [RPC31 C-terminal 12 aa] | 0.692 ± 0.01 | 0.673 ± 0.027
4 | GDSDNVVKRLRK [URB1 C-terminal 12 aa] | 0.686 ± 0.018 | 0.707 ± 0.016
5 | GECVLTKNNKFT [ATG21 C-terminal 12 aa] | 0.672 ± 0.034 | 0.652 ± 0.026
6 | GFIRGSNKFAEV [SMC3 C-terminal 12 aa] | 0.6866 ± 0.0044 | 0.6658 ± 0.0058
7 | GFQTGSASKASA [RPL37A C-terminal 12 aa] | 0.71864 ± 0.00033 | 0.712 ± 0.019
8 | GIVYDFHKSDMY [LSM1 C-terminal 12 aa] | 0.683 ± 0.036 | 0.696 ± 0.043
9 | GKDITDQPCIDL [SSP2 C-terminal 12 aa] | 0.7054 ± 0.00083 | 0.725 ± 0.058
10 | GKTAADNIAKLY [OSM1 C-terminal 12 aa] | 0.6764 ± 0.004 | 0.619 ± 0.02
11 | GLCLCCTLDMLF [YDL012C C-terminal 12 aa] | 0.676 ± 0.014 | 0.6621 ± 0.0026
12 | GLLMAGKASEFQ [VMA16 C-terminal 12 aa] | 0.694 ± 0.013 | 0.72 ± 0.035
13 | GMLYALYIVLQD [PMP3 C-terminal 12 aa] | 0.301 ± 0.0097 | 0.32 ± 0.0081
14 | GNAIREIKTYKY [GLY1 C-terminal 12 aa] | 0.687 ± 0.035 | 0.658 ± 0.052
15 | GPSDDDEEDDKK [YGL242C C-terminal 12 aa] | 0.643 ± 0.043 | 0.675 ± 0.07
16 | GPTIPISATIRE [RCK2 C-terminal 12 aa] | 0.65756 ± 0.00065 | 0.735 ± 0.021
17 | GPYWKRVLDFWC [GNP1 C-terminal 12 aa] | 0.752 ± 0.012 | 0.739 ± 0.029
18 | GPYWKRVVAFWC [AGP1 C-terminal 12 aa] | 0.734 ± 0.017 | 0.549 ± 0.011
19 | GRNKIYILFNVL [YMR030W-A C-terminal 12 aa] | 0.6466 ± 0.0047 | 0.116 ± 0.0082
20 | GRVDFQSTSKFT [AIM24 C-terminal 12 aa] | 0.702 ± 0.036 | 0.7036 ± 0.0061
21 | GTAASEPTPITK [ATP15 C-terminal 12 aa] | 0.7295 ± 0.0065 | 0.681 ± 0.017

Row | Sequence | protein stability index [1] | protein stability index (genetic background: wild type)
22 | GTKMEWFFDPLA [IPT1 C-terminal 12 aa] | 0.732 ± 0.025 | 0.701 ± 0.0081
23 | GTMKVDSWEPVD [ACH1 C-terminal 12 aa] | 0.7 ± 0.013 | 0.6829 ± 0.0049
24 | GTVNYAGLHDEL [SED4 C-terminal 12 aa] | 0.687 ± 0.034 | 0.723 ± 0.044
25 | GVRKEFYELKRD [PRE7 C-terminal 12 aa] | 0.69519 ± 5.6e-05 | 0.693 ± 0.054
26 | GYKDRFGNLNVM [ATP7 C-terminal 12 aa] | 0.7037 ± 0.0041 | 0.687 ± 0.02
27 | GYQRGLDEFNKY [MRX18 C-terminal 12 aa] | 0.7148 ± 0.0013 | 0.681 ± 0.04
28 | HEKPHTVSLRHK [CPR4 C-terminal 12 aa] | 0.717 ± 0.013 | 0.721 ± 0.035
29 | HENSKCFTHYLI [AFR1 C-terminal 12 aa] | 0.684 ± 0.035 | 0.6605 ± 0.0065
30 | HERKRNKVLNTT [CMR3 C-terminal 12 aa] | 0.704 ± 0.021 | 0.661 ± 0.043
31 | HFYDRTNDLTNL [YNL144C C-terminal 12 aa] | 0.736 ± 0.024 | 0.68 ± 0.039
32 | HIFEKKIFHTNL [YOL097W-A C-terminal 12 aa] | 0.706 ± 0.018 | 0.65 ± 0.027
33 | HLAQMKMEQLLK [APQ12 C-terminal 12 aa] | 0.678 ± 0.015 | 0.67 ± 0.014
34 | HLCWLRCACDGP [YLR154C-G C-terminal 12 aa] | 0.716 ± 0.0083 | 0.699 ± 0.022
35 | HLSMVCDLELQL [NGL2 C-terminal 12 aa] | 0.738 ± 0.072 | 0.659 ± 0.045
36 | HNLESLVVAFNE [SPO16 C-terminal 12 aa] | 0.6872 ± 0.003 | 0.717 ± 0.064
37 | HPTSAEELVTMR [GLR1 C-terminal 12 aa] | 0.7175 ± 0.007 | 0.693 ± 0.071
38 | HYPLNSIPFTVT [YMR326C C-terminal 12 aa] | 0.706 ± 0.019 | 0.775 ± 0.087
39 | IADELDWLKFGI [GLN3 C-terminal 12 aa] | 0.906 ± 0.028 | 0.882 ± 0.019
40 | ICAWLLFFETIH [BST1 C-terminal 12 aa] | 0.458 ± 0.018 | 0.521 ± 0.059
41 | IDIPVQVKNSFI [YNR068C C-terminal 12 aa] | 0.711 ± 0.017 | 0.706 ± 0.051
42 | IDLSKKLSFYNY [GMH1 C-terminal 12 aa] | 0.685 ± 0.043 | 0.554 ± 0.0067

Row | Sequence | protein stability index [1] | protein stability index (genetic background: wild type)
43 | IDNVIISGKDEY [CCT5 C-terminal 12 aa] | 0.7033 ± 0.0056 | 0.6529 ± 0.0048
44 | IDSLIENLRFQI [DBF4 C-terminal 12 aa] | 0.7414 ± 0.0037 | 0.678 ± 0.049
45 | IEELLAGIRMSI [BIT61 C-terminal 12 aa] | 0.719 ± 0.028 | 0.706 ± 0.037
46 | IEHVKYDNIVSP [UBC12 C-terminal 12 aa] | 0.6974 ± 0.0012 | 0.675 ± 0.011
47 | IFMCIILANKHF [YFR052C-A C-terminal 12 aa] | 0.342 ± 0.02 | 0.22 ± 0.009
48 | IFQSAISKAIRG [YBR109W-A C-terminal 12 aa] | 0.6726 ± 0.0032 | 0.682 ± 0.0053
49 | IFRDYFYKSPSP [PIG1 C-terminal 12 aa] | 0.739 ± 0.0098 | 0.763 ± 0.034
50 | IFSSLVHYCNAG [LST4 C-terminal 12 aa] | 0.729 ± 0.013 | 0.73 ± 0.0085
51 | IFWLALIYNAIQ [LOH1 C-terminal 12 aa] | 0.479 ± 0.016 | 0.43 ± 0.027
52 | IGDFFKNLNMAK [NUP159 C-terminal 12 aa] | 0.715 ± 0.026 | 0.743 ± 0.054
53 | IGGLLKPSELDD [CRM1 C-terminal 12 aa] | 0.726 ± 0.032 | 0.696 ± 0.033
54 | IGWSVFAEWLCV [CYK3 C-terminal 12 aa] | 0.504 ± 0.02 | 0.5137 ± 0.003
55 | IHRSVSELSRLH [MBB1 C-terminal 12 aa] | 0.705 ± 0.023 | 0.689 ± 0.025
56 | IHSTKEEKNCNH [YDR095C C-terminal 12 aa] | 0.712 ± 0.017 | 0.683 ± 0.029
57 | IIAIVFKILSPN [FAR10 C-terminal 12 aa] | 0.32 ± 0.023 | 0.347 ± 0.031
58 | IIFVVLLCKKSR [ASG7 C-terminal 12 aa] | 0.299 ± 0.019 | 0.309 ± 0.019
59 | IIQQNLKKIGII [GPA1 C-terminal 12 aa] | 0.696 ± 0.02 | 0.195 ± 0.011
60 | IITGSTSTSSSN [MED8 C-terminal 12 aa] | 0.671 ± 0.017 | 0.7067 ± 0.00076
61 | IKELENSRHEQS [MNN1 C-terminal 12 aa] | 0.713 ± 0.049 | 0.6866 ± 7.9e-05
62 | IKPSAEVHINAL [VMA10 C-terminal 12 aa] | 0.686 ± 0.011 | 0.743 ± 0.092
63 | IKPSWENEKNIS [ARG2 C-terminal 12 aa] | 0.69 ± 0.02 | 0.684 ± 0.028

Row | Sequence | protein stability index [1] | protein stability index (genetic background: wild type)
64 | ILGAYLIDCVCC [YGL069C C-terminal 12 aa] | 0.576 ± 0.045 | 0.644 ± 0.1
65 | ILGNMEKKKNQD [EPS1 C-terminal 12 aa] | 0.733 ± 0.021 | 0.751 ± 0.013
66 | ILWLKLEKRIEN [YLR339C C-terminal 12 aa] | 0.711 ± 0.025 | 0.703 ± 0.01
67 | IMLTLLMFTGAV [PLB3 C-terminal 12 aa] | 0.402 ± 0.0044 | 0.396 ± 0.0091
68 | INIQQFAALLSK [CMD1 C-terminal 12 aa] | 0.66 ± 0.0085 | 0.68 ± 0.0055
69 | IPAKKTKISLDY [ELP4 C-terminal 12 aa] | 0.6845 ± 0.0032 | 0.677 ± 0.018
70 | IPELHNLKPTCV [YBR238C C-terminal 12 aa] | 0.67 ± 0.012 | 0.687 ± 0.016
71 | IPMTLTTLSTVF [UPA2 C-terminal 12 aa] | 0.619 ± 0.0083 | 0.628 ± 0.012
72 | IQKLEEARNPQF [UPS1 C-terminal 12 aa] | 0.704 ± 0.046 | 0.718 ± 0.034
73 | IRRHAYYNQDDD [SLA2 C-terminal 12 aa] | 0.677 ± 0.02 | 0.664 ± 0.0037
74 | ITERLFNAALDD [YBR232C C-terminal 12 aa] | 0.7089 ± 0.0038 | 0.708 ± 0.018
75 | ITGLKNNIQKCS [YER068C-A C-terminal 12 aa] | 0.688 ± 0.0055 | 0.253 ± 0.014
76 | ITHLKAILPKYL [CCA1 C-terminal 12 aa] | 0.695 ± 0.0085 | 0.324 ± 0.0095
77 | ITSLKSDEYLVQ [RET2 C-terminal 12 aa] | 0.73 ± 0.046 | 0.724 ± 0.085
78 | IVHKSNFINNKK [OXA1 C-terminal 12 aa] | 0.7224 ± 0.0042 | 0.6943 ± 0.0055
79 | IVLPMIKDYLFS [HLJ1 C-terminal 12 aa] | 0.678 ± 0.018 | 0.702 ± 0.0079
80 | IWKEVKRHQDFA [ATG20 C-terminal 12 aa] | 0.7235 ± 0.0023 | 0.734 ± 0.0089
81 | IWKPAGNLVGHS [MSI1 C-terminal 12 aa] | 0.698 ± 0.013 | 0.7019 ± 0.0026
82 | IYDWAGEYPLAV [SHM2 C-terminal 12 aa] | 0.707 ± 0.026 | 0.737 ± 0.0049
